Test results published in US20170087188A1, “WNT INDUCED MOTILITY AND ENHANCED ENGRAFTMENT OF CELLS” (OTTAWA HOSPITAL RESEARCH INSTITUTE, priority 2014, published 2017).
“Also recorded” adds a separate entry of the source.

B1: Wnt5a: Wnt protein (R&D Systems) used as comparison in myoblast transplantation (protein, UniProt P41221 62-380, looked up)
Protein Wnt-5a: IIGAQPLCSQLAGLSQGQKKLCHLYQDHMQYIGEGAKTGIKECQYQFRHRRWNCSTVDNTSVFGRVMQIGSRETAFTYAVSAAGVVNAMSRACREGELSTCGCSRAARPKDLPRDWLWGGCGDNIDYGYRFAKEFVDARERERIHAKGSYESARILMNLHNNEAGRRTVYNLADVACKCHGVSGSCSLKTCWLQLADFRKVGDALKEKYDSAAAMRLNSRGKLVQVNSRFNSPTTQDLVYIDPSPDYCVRNESTGSLGTQGRLCNKTSEGMDGCELMCCGRGYDQFKTVQTERCHCKFHWCCYVKCKKCTEIVDQFVCK
B2: Wnt3a: unrelated canonical Wnt protein (R&D Systems) used as comparison (protein, UniProt P56704 19-352, looked up)
Protein Wnt-3a: SYPIWWSLAVGPQYSSLGSQPILCASIPGLVPKQLRFCRNYVEIMPSVAEGIKIGIQECQHQFRGRRWNCTTVHDSLAIFGPVLDKATRESAFVHAIASAGVAFAVTRSCAEGTAAICGCSSRHQGSPGKGWKWGGCSEDIEFGGMVSREFADARENRPDARSAMNRHNNEAGRQAIASHMHLKCKCHGLSGSCEVKTCWWSQPDFRAIGDFLKDKYDSASEMVVEKHRESRGWVETLRPRYTYFKVPTERDLVYYEASPNFCEPNPETGSFGTRDRTCNVSSHGIDGCDLLCCGRGHNARAERRREKCRCVFHWCCYVSCQECTRVYDVHTCK

What was measured:
mdx mice = experiment: Transplantation of Wnt-treated mouse primary myoblasts into mdx mice; type: in vivo; conditions: treated zsGreen+ myoblasts; three weeks following transplantation; compared to Veh.
Procedure: In a clinical setting, freshly isolated satellite cells are often not readily available. Therefore, the effect of 3 h Wnt7a loading on cultured primary mouse myoblasts that were subsequently transplanted into injured muscles of immunosuppressed mdx mice (FIG. S5 A) was examined. After transplantation of 100,000 cells, the number of dystrophin-expressing myofibers was increased by 72% in muscles that were injected with Wnt7a treated myoblasts (FIG. 13B). […] In addition, the mean maximal cluster distance (dispersion) increased from 1.5 mm for Veh., to 2.0 mm for Wnt7a (FIG. 13D).
Transplantation of zsGreen-expressing satellite cells or myoblasts into mdx mice was performed as previously described (Bentzinger et al., 2013c). Before transplantation the cells were treated for 3 h with Wnt7a, Wnt5a, or Wnt3a (R&D Systems) at a concentration of 50 ng/mL for freshly isolated satellite cells or with 100 ng/mL for cultured cells. Myoblasts expressing tdTomato were transplanted into uninjured muscles of C57BL/6 mice that were implanted with an osmotic pump (Alzet) delivering FK506 (Sigma) at 2.5 mg/kg/day 3 days prior to the transplantations. In some experiments, the injection site was marked with blue fluorescent microspheres (2 μm, Life Technologies) that were added at a concentration of 1:100 (vol/vol) to the cell suspension. 10 μl of the cell-microsphere suspension was injected into the TA of each mouse using a Hamilton syringe.
Muscles frozen in liquid nitrogen were cut into 12 μm cross-sections. Cross-sections and cells were either fixed with ethanol (100%) or 2% PFA for 5 min, permeabilized with 0.1% Triton/0.1 M glycine/PBS for 10 min, blocked with 5% horse serum in PBS for several hours, and incubated with specific primary antibody in blocking buffer overnight at 4° C. Samples were subsequently washed with PBS and stained with appropriate fluorescently labeled secondary antibodies for 1 h at room temperature. After washing with PBS, samples were mounted with Permafluor (Fisher). Antibodies were as follows: chicken anti-GFP (Abcam, ab13970), mouse anti-Pax7 (DSHB), mouse anti-Dystrophin (7A10, DSHB), mouse anti-Rac1 (05-389, Millipore), mouse anti-Tubulin (Sigma, T9026), rabbit anti-Dvl2 (3224, Cell Signaling), rabbit anti-zsGreen (Clontech, 632474), rabbit anti-Laminin (Sigma, L9393), rabbit anti-HA (Millipore, 07-221).

mouse primary myoblasts = experiment: Scratch migration assay, mouse primary myoblasts; type: cell-based
Procedure: Cellular polarization is indicative of increased motility (de Forges et al., 2012). Scratch assays were used to test whether Wnt7a and Fzd7 polarization affect cell motility. To exclude effects on the localization of cells arising from altered rates of proliferation, cells were treated with Mitomycin-C.
Fzd7 deficient cells migrated 59% less compared to heterozygous myoblasts and expression of Fzd7-Flag in Fzd7 knockout myoblasts restored migration to normal levels (FIG. 2D). […] To investigate whether the stimulation of myoblast migration is dose dependent, different concentrations of Wnt7a and Wnt3a were tested for their effect on migration.
Following plasmid transfection or application of Wnts (R&D Systems), the cells were treated with Mitomycin-C for 2 h (50 μg/mL). Subsequently, the monolayer of cells was scraped in a straight line. The plates were then extensively washed with culture medium and incubated for 24 h before analysis. Analysis was performed using DAPI staining after matching the reference points and enumeration of DAPI-stained nuclei in the scar was performed. Unless otherwise indicated, Wnt7a and Wnt3a were used at a concentration of 100 ng/mL in scratch assays. Monodansylcadaverine (MDC, 30432, Sigma) was used in scratch assays at a concentration of 50 μm.

β-catenin signaling = experiment: TOP-flash luciferase reporter assay in C2C12 cells; type: cell-based; conditions: different concentrations
Procedure: Different concentrations of Wnt7a were tested to exclude a dose dependent effect on β-catenin signaling, as measured by induction of TOP-flash activity in C2C12 cells.
The UBC-Fzd7-Flag (Fzd7-Flag), CMV-Fzd7-EYFP (Fzd7-YFP), CMV-Fzd3-EYFP (Fzd3-YFP), CMV-EYFP (YFP), CMV-EGFP-Rac1-wt (GFP-Rac1, 12980, Addgene), CMV-EGFP-Rac1-T17N (Rac1-DN, 12982, Addgene), CMV-EGFP-RhoA-T19N (RhoA-DN, 12967, Addgene) and CMV-EGFP-Cdc42-T17N (Cdc42-DN, 12976, Addgene) constructs have been described previously (Bentzinger et al., 2013a; Subauste et al., 2000; von Maltzahn et al., 2011). The Fzd7-tdtomato plasmid was generated by replacing the C-terminal YFP in Fzd7-YFP with tdTomato. For TOP-flash and FOP-flash the TCF reporter plasmid kit (17-285, Millipore) was used with the dual-luciferase reporter assay system (E1960, Promega). For normalization pGL4.74[hRluc/TK] (E6921, Promega) was cotransfected. For TOP-flash and FOP-flash assays the cells were transfected with GenJet lipofection reagent (SL100499, SignaGen). Otherwise, Lipofectamine 2000 (11668019, Life Technologies) was used for transfections.

primary myoblasts = experiment: Proliferation of primary myoblasts over five days; type: cell-based; conditions: 3 h exposure; various concentrations; over 5 days
Procedure: The proliferation of primary myoblasts following a 3 h exposure to various concentrations of Wnt7a was analyzed to control for the effect being due to changes in the cell cycle status of the transplanted cells.

Molecule	mean maximal cluster distance (mdx mice)	number of dystrophin-expressing myofibers (mdx mice)	dose dependency of myoblast migration (mouse primary myoblasts; different concentrations tested, mouse primary myoblasts)	stimulation of cell migration (mouse primary myoblasts; primary mouse myoblasts, 100 ng/mL)	TOP-flash reporter activity (β-catenin signaling)	rate of proliferation of primary myoblasts (primary myoblasts)
B1	no difference; also recorded: Neither the number of dystrophin-expressing myofibers (FIG. 13E) nor the mean maximal cluster distance (FIG. 13F) was changed	no difference; also recorded: Neither the number of dystrophin-expressing myofibers (FIG. 13E) nor the mean maximal cluster distance (FIG. 13F) was changed				
B2	no difference; also recorded: Neither the number of dystrophin-expressing myofibers (FIG. 13E) nor the mean maximal cluster distance (FIG. 13F) was changed	no difference; also recorded: Neither the number of dystrophin-expressing myofibers (FIG. 13E) nor the mean maximal cluster distance (FIG. 13F) was changed	no significant effect at any concentration tested	does not affect cell migration; also recorded: did not stimulate cell migration	dose dependent increase; also recorded: dose dependent response	reduced the proliferation of primary myoblasts
